Data: paper PMC10888616, “Pleiotropic Effects of PhaR Regulator in Bradyrhizobium diazoefficiens Microaerobic Metabolism”

Tests used:
[1] = molecular target: recombinant untagged PhaR protein of Bradyrhizobium diazoefficiens (Bradyrhizobium diazoefficiens); experiment: SEC; Superdex 75 10/300 GL, mIVT buffer at pH 8 (40 mM Tris-HCl, 150 mM KCl, 0.1 mM EDTA, 0.1 mM DTT), 200 uL of untagged PhaR at 5 to 30 uM, 0.5 mL/min; tetramer to monomers; the monomer peak increased at lower concentrations
PhaR [2] = molecular target: T1, PhaR (Bradyrhizobium diazoefficiens USDA 110, UniProt Q89XT0 1-197); experiment: EMSA; mIVT buffer: 40 mM Tris-HCl pH 7.0, 150 mM KCl, 0.1 mM EDTA, 0.1 mM DTT; 10 uL, 2 ng DNA, 0-2 uM PhaR, 30 min room temperature; 6% native PAGE 0.5X TBE, SYBR Gold; settings: protein: recombinant; tags: untagged (C-terminal intein-CBD removed, IMPACT); chain copies: 4; blunt
T1 sequence: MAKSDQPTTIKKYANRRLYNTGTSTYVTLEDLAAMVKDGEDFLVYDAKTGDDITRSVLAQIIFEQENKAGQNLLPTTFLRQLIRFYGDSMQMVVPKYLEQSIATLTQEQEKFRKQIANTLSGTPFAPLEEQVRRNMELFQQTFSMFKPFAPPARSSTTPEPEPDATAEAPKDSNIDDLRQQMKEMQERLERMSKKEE

PhaR [3] = molecular target: T1, PhaR; experiment: EMSA; mutation did not affect interaction at 1-2 uM PhaR; mIVT buffer: 40 mM Tris-HCl pH 7.0, 150 mM KCl, 0.1 mM EDTA, 0.1 mM DTT; 10 uL, 2 ng DNA, 0-2 uM PhaR, 30 min room temperature; 6% native PAGE 0.5X TBE, SYBR Gold; settings: protein: recombinant; tags: untagged (C-terminal intein-CBD removed, IMPACT); chain copies: 4; blunt
PhaR [4] = molecular target: T1, PhaR; experiment: EMSA; shift at 0.5 uM PhaR; mIVT buffer: 40 mM Tris-HCl pH 7.0, 150 mM KCl, 0.1 mM EDTA, 0.1 mM DTT; 10 uL, 2 ng DNA, 0-2 uM PhaR, 30 min room temperature; 6% native PAGE 0.5X TBE, SYBR Gold; settings: protein: recombinant; tags: untagged (C-terminal intein-CBD removed, IMPACT); chain copies: 4; blunt

recombinant untagged PhaR protein of Bradyrhizobium diazoefficiens (natural protein)
stoichiometry N [1]: 4

B1: blr4358 oligo wild type (blr4358_EMSA_1) (dsDNA)
DNA 1: CGCCGGATCAGCCCGCCAAGATCAAGGCCGCGAAGAAGGTCTCCAA
DNA 2: TTGGAGACCTTCTTCGCGGCCTTGATCTTGGCGGGCTGATCCGGCG
binding result (PhaR [2]): binds

B2: blr4358 oligo, long PhaR box mutated (blr4358_EMSA_2) (dsDNA)
DNA 1: CGCCGGATCAGCAATAAAATATAAATTAATATAAGAAGGTCTCCAA
DNA 2: TTGGAGACCTTCTTATATTAATTTATATTTTATTGCTGATCCGGCG
binding result (PhaR [3]): binds

B3: phaP1 67 bp wild type (5155_2) (dsDNA)
DNA 1: GATCTAGTTTTTGTGCGACGCACAAGATTCTTGACTTTTTTGTGCGTTGCACTAATTGTGGGCAGAG
DNA 2: CTCTGCCCACAATTAGTGCAACGCACAAAAAAGTCAAGAATCTTGTGCGTCGCACAAAAACTAGATC
binding result (PhaR [4]): binds
